From patent US20130143299A1 (GENEFRONTIER, published 2013)
Positions count from the first letter of the chain named.

B1: Trx-binding clone group A (RNF8-FHA domain-modified protein) (designed binder)
chain: GEPGFFVTGDRAGGRSWCLRRVGMSAGWLLLEDGCEVTVGFVPGVTYQLVSKVLFAEKNANHCVLKQNPEGQWTIMDNKVWNGVWLNRARLEPLRVYSIHQGDYIQLGQVSPLGENAEYEYEVTEEDWETIYPCLSPKNDQMIEKN
notes: also called Trx clone A; not shown: N-terminal fusion partner from vector pET-MalStrep (MBP/Strep) and FLAG tag
B2: Erk2-binding clone group N (RNF8-FHA domain-modified protein) (designed binder)
chain: GEPGFFVTGDRAGGRSWCLRRVGMSAGWLLLEDGCEVTVGWGGGVTYQLVSKGYLWQRRTNHCVLKQNPEGQWTIMDNKVLGGVWLNRARLEPLRVYSIHQGDYIQLGLRSLLLENAEYEYEVTEEDWETIYPCLSPKNDQMIEKN
notes: Purified protein from E. coli; also called Erk2 clone N; clone N; not shown: N-terminal fusion partner from vector pET-MalStrep (MBP/Strep) and FLAG tag
B3: Erk2-binding clone group B (RNF8-FHA domain-modified protein) (designed binder)
chain: GEPGFFVTGDRAGGRSWCLRRVGMSAGWLLLEDGCEVTVGFGTGVTYQLVSKYLPSWFTYNHCVLKQNPEGQWTIMDNKSLTGVWLNRARLEPLRVYSIHQGDYIQLGALKQSLENAEYEYEVTEEDWETIYPCLSPKNDQMIEKN
notes: Loop 4 ALKQSL; loops 1-3 as group A; also called Erk2 clone B; not shown: N-terminal fusion partner from vector pET-MalStrep (MBP/Strep) and FLAG tag
B4: Erk2-binding clone group D (RNF8-FHA domain-modified protein) (designed binder)
chain: B3 chain with A109S, L110H, Q112W, S113W, L114V
notes: Loop 4 SHKWWV; loops 1-3 as group A; also called Erk2 clone D; not shown: N-terminal fusion partner from vector pET-MalStrep (MBP/Strep) and FLAG tag
B5: Erk2-binding clone group C (RNF8-FHA domain-modified protein) (designed binder)
chain: B3 chain with L110M, K111T, Q112T, L114Y
notes: Loop 4 AMTTSY; loops 1-3 as group A; also called Erk2 clone C; not shown: N-terminal fusion partner from vector pET-MalStrep (MBP/Strep) and FLAG tag
B6: Erk2-binding clone group A (RNF8-FHA domain-modified protein) (designed binder)
chain: B3 chain with A109G, L110I, K111W, Q112S, S113D
notes: Expressed from pET-MalStrep in E. coli; also called Erk2 clone A; not shown: N-terminal fusion partner from E. coli vector pET-MalStrep (MBP, purified on MBPTrap)
B7: Trx-binding clone group D (RNF8-FHA domain-modified protein) (designed binder)
chain: B1 chain with Q109R, V110G, S111C, P112L, L113G, G114L
notes: Loop 4 RGCLGL; loops 1-3 as Trx group A; not shown: N-terminal fusion partner from vector pET-MalStrep (MBP/Strep) and FLAG tag
B8: Trx-binding clone group G (RNF8-FHA domain-modified protein) (designed binder)
chain: B1 chain with V42L, V53P, L54M, F55R, A56R, A60M, W81R, N82I
notes: not shown: N-terminal fusion partner from vector pET-MalStrep (MBP/Strep) and FLAG tag
B9: Trx-binding clone group C (RNF8-FHA domain-modified protein) (designed binder)
chain: B1 chain with Q109G, S111F, P112R, L113K
notes: Loop 4 GVFRKG; loops 1-3 as Trx group A; not shown: N-terminal fusion partner from vector pET-MalStrep (MBP/Strep) and FLAG tag
B10: Trx-binding clone group H (RNF8-FHA domain-modified protein) (designed binder)
chain: GEPGFFVTGDRAGGRSWCLRRVGMSAGWLLLEDGCEVTVGSDWGVTYQLVSKRWLGNVVFNHCVLKQNPEGQWTIMDNKAGHGVWLNRARLEPLRVYSIHQGDYIQLGEPSSLHENAEYEYEVTEEDWETIYPCLSPKNDQMIEKN
notes: as for B8
B11: Erk2-binding clone group H (RNF8-FHA domain-modified protein) (designed binder)
chain: B3 chain with A109L, L110V, K111A, Q112Y, S113G, L114A
notes: Only tested in the primary screening ELISA (E. coli extract); not shown: N-terminal fusion partner from vector pET-MalStrep (MBP/Strep) and FLAG tag
B12: Erk2-binding clone group K (RNF8-FHA domain-modified protein) (designed binder)
chain: B3 chain with A109E, L110D, K111R, Q112F, S113G
notes: as for B11
B13: Erk2-binding clone group L (RNF8-FHA domain-modified protein) (designed binder)
chain: B3 chain with L110M, K111F, Q112S, S113D, L114V
notes: as for B11
B14: Erk2-binding clone group F (RNF8-FHA domain-modified protein) (designed binder)
chain: B3 chain with A109S, L110M, K111R, Q112H, S113M
notes: as for B11
B15: Erk2-binding clone group I (RNF8-FHA domain-modified protein) (designed binder)
chain: B3 chain with A109S, K111A, Q112A, S113N
notes: as for B11
B16: Erk2-binding clone group G (RNF8-FHA domain-modified protein) (designed binder)
chain: B3 chain with A109S, K111P, Q112G, S113L, L114A
notes: as for B11
B17: Erk2-binding clone group E (RNF8-FHA domain-modified protein) (designed binder)
chain: B3 chain with A109E, L110T, K111G, Q112L, S113E, L114W
notes: as for B11
B18: Erk2-binding clone group M (RNF8-FHA domain-modified protein) (designed binder)
chain: B3 chain with K111R, Q112C, S113R
notes: as for B11
B19: Trx clone A expressed from pcDNA3.1-RNF8-V5/His in HEK293T cells (designed binder)
chain: B1 chain
notes: Control clone in the pull-down of endogenous Erk1/2; not shown: C-terminal V5 and His tags of vector pcDNA3.1-V5/His

Biological target: T1, human Erk2 (extracellular signal-regulated kinase 2), purchased from Sigma (human, UniProt P28482 1-360, limits assumed)
T1 construct: Biotinylated with EZ-Link NHS-PEO4-Biotin for selection and for SPR (SA sensor chip); immobilised directly on the plate for ELISA; also called recombinant Erk2 protein; Erk2 protein
T1 sequence (P28482 whole entry): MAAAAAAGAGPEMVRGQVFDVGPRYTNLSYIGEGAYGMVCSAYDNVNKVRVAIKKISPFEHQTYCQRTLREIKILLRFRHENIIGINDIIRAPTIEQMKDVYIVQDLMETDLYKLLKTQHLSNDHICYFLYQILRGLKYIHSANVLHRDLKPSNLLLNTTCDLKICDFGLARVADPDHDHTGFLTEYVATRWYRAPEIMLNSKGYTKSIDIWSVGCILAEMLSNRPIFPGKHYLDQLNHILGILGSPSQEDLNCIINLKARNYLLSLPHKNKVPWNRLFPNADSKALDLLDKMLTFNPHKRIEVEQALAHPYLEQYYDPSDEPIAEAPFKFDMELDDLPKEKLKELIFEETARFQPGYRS
Assay: Immunoprecipitation on anti-FLAG M2 agarose of recombinant Erk2 added to HEK293T cell lysate; SDS-PAGE (CBB staining) and Western blot with anti-ERK antibody

Binder	binding result
B1	no binding

Biological target: T1, human Erk2 (extracellular …)
Assay: ELISA, purified clone 500 ng/well on immobilised antigen, anti-FLAG-HRP detection

Binder	ELISA (S/N)
B2	12.6 S/N
B3	30 S/N
B4	13.6 S/N
B5	12 S/N
B6	30 S/N

Biological target: T2, Escherichia coli thioredoxin, purchased from Sigma (Escherichia coli, UniProt P0AA25 2-109 = thioredoxin)
T2 construct: Immobilised on the plate for ELISA; also called Trx
T2 sequence (P0AA25 2-109 limits assumed): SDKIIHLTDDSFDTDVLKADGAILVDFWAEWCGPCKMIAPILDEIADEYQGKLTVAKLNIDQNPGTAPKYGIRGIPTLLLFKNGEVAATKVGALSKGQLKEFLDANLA
Assay: as above

Binder	ELISA (S/N)
B1	30.5 S/N
B7	4.7 S/N
B8	22.2 S/N
B9	4.4 S/N
B10	5.7 S/N

Biological target: T1, human Erk2 (extracellular …)
Assay: SPR (BIACORE 3000), biotinylated Erk2 on SA sensor chip

Binder	Kd
B2	30 nM

Biological target: T1, human Erk2 (extracellular …)
Assay: primary screening ELISA, E. coli extract on immobilised antigen, anti-FLAG-HRP

Binder	binding result
B11	binds
B12	binds
B13	binds
B14	binds
B15	binds
B16	binds
B17	binds
B18	binds

Biological target: T3, endogenous Erk1 of HEK293T cells (UniProt P27361 2-379)
T3 construct: Endogenous intracellular protein, not a recombinant construct; also called Erk1/2
T3 sequence (P27361 2-379 limits assumed): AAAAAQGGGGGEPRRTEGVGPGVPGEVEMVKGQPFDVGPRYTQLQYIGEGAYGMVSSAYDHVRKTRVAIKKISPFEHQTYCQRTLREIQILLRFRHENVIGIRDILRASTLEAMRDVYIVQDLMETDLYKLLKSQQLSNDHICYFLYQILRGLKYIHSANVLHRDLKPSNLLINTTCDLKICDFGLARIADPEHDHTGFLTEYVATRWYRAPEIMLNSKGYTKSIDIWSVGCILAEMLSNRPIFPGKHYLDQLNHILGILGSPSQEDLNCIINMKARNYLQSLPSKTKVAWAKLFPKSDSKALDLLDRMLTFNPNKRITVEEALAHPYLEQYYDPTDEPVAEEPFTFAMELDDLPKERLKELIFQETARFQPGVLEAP
Assay: His-tag (TALON resin) pull-down from transfected HEK293T cells, Western blot with anti-ERK antibody

Binder	binding result
B19	no binding

Biological target: T4, endogenous Erk2 of HEK293T cells (UniProt P28482 2-360)
T4 construct: Endogenous intracellular protein, not a recombinant construct; also called Erk1/2
T4 sequence (P28482 2-360 limits assumed): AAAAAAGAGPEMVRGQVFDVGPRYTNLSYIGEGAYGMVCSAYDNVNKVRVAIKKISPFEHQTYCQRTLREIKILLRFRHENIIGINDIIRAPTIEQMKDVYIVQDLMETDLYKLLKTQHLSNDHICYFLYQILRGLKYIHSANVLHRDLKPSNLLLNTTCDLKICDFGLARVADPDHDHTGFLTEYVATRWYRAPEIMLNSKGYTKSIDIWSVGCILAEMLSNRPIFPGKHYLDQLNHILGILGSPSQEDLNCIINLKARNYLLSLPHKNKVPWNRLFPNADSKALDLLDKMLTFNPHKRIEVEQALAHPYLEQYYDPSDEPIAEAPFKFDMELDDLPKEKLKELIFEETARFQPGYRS
Assay: as above

Binder	binding result
B19	no binding
